Assay results taken from patent US20090137003A1 (SYMPHOGEN A S, published 2009).

Key:
Assay in all cases: cell-based or functional assay
[1] = molecular target: T1, RSV protein F of strain Long (RSV Long (ATCC number VR-26), UniProt P12568 26-574)
[2] = molecular target: T2, RSV protein F of strain B Wash/18537 (RSV B Wash/18537 (ATCC number VR-1580), UniProt P13843 26-574)
[3] = molecular target: T3, RSV protein F of strain A2 (RSV A2 (ATCC number VR-1540), UniProt P03420 26-574)
[4] = molecular target: T1, RSV protein F of strain Long; remark: listed apart in the source
[5] = molecular target: T2, RSV protein F of strain B Wash/18537; remark: listed apart in the source
[6] = molecular target: T3, RSV protein F of strain A2; remark: listed apart in the source

T1 sequence (P12568 26-574): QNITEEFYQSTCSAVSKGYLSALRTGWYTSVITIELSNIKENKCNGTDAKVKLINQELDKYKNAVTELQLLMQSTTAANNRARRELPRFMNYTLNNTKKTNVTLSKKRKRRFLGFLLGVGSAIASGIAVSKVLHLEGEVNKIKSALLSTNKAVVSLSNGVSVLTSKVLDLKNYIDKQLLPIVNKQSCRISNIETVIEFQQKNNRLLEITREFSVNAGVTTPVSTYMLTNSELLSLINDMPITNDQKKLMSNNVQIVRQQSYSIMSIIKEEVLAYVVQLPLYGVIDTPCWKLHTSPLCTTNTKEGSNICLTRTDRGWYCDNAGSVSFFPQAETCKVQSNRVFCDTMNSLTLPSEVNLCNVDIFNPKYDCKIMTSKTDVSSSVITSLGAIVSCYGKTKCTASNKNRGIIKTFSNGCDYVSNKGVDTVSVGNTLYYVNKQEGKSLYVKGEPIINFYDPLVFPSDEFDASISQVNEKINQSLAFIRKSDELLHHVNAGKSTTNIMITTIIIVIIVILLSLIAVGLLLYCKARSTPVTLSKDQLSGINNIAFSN
T2 sequence (P13843 26-574): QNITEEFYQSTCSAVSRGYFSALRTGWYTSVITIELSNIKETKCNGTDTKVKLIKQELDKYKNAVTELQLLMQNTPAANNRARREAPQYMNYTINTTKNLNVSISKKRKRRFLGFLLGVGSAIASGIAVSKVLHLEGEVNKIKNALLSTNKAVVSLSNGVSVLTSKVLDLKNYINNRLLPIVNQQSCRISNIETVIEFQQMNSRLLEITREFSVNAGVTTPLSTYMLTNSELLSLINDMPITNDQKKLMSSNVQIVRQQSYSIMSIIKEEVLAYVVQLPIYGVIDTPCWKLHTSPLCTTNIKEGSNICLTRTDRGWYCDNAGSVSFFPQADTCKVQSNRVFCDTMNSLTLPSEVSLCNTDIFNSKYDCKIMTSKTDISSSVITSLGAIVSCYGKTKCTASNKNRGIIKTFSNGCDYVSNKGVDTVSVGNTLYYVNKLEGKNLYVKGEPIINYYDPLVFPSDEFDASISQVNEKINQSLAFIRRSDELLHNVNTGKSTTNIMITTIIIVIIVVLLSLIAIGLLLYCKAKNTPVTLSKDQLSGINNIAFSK
T3 sequence (P03420 26-574): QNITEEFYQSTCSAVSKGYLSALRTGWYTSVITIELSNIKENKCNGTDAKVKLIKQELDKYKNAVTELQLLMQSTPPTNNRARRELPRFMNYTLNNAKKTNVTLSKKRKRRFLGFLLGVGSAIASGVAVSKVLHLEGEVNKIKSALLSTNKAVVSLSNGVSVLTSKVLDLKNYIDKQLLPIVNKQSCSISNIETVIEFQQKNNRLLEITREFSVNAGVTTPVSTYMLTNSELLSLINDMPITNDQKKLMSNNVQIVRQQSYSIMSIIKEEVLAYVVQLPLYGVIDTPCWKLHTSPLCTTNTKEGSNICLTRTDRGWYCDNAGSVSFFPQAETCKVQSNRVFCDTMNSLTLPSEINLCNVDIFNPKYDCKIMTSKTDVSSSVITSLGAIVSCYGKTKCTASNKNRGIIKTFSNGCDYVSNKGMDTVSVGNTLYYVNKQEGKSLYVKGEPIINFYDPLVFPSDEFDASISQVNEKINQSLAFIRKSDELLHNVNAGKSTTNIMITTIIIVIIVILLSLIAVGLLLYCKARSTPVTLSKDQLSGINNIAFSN

B1: Palivizumab (Synagis) (antibody, V domains shown)
VH: QVTLRESGPALVKPTQTLTLTCTFSGFSLSTSGMSVGWIRQPPGKALEWLADIWWDDKKDYNPSLKSRLTISKDTSKNQVVLKVTNMDPADTATYYCARSMITNWYFDVWGAGTTVTVSS
VL: DIQMTQSPSTLSASVGDRVTITCKCQLSVGYMHWYQQKPGKAPKLLIYDTSKLASGVPSRFSGSGSGTEFTLTISSLQPDDFATYYCFQGSGYPFTFGGGTKLEIK
EC50 value (µg/ml), PRNT (plaque reduction neutralization) against RSV strain Long [1]: 0.14 µg/mL
EC50 value (µg/ml), PRNT (plaque reduction neutralization) against RSV strain 18537 [2]: 0.2 µg/mL
EC50 value (µg/ml), PRNT (plaque reduction neutralization) against RSV strain A2 [3]: 0.15 µg/mL
PRNT EC50 with complement, RSV Long [4]: 0.14 µg/mL
PRNT EC50 with complement, RSV 18537 [5]: 0.2 µg/mL
PRNT EC50 with complement, RSV A2 [6]: 0.15 µg/mL
